The record followed here is US20240166745A1 (Eli Lilly, published 2024).

Assay [1] has as its target T1, cell membrane-expressed human LAG-3 (human, UniProt P18627 23-525).
T1 construct: also called hLAG-3; CD223
T1 sequence: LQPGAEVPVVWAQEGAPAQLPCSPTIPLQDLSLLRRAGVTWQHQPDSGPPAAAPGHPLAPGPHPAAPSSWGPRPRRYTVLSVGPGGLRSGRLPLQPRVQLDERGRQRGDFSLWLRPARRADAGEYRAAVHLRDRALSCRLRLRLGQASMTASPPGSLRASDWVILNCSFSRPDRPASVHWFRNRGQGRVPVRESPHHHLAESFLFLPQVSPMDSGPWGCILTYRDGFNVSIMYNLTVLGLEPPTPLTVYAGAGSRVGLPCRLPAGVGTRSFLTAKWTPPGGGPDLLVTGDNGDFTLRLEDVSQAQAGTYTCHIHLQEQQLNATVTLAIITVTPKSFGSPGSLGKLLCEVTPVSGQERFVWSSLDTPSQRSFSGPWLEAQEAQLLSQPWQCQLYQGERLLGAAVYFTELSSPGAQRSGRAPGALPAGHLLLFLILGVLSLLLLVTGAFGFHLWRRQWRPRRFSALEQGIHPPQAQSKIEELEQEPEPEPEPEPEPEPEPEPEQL
The experiment in a line: flow cytometry, labeled antibody on anti-CD3 activated human PBMC, CD4 T cells, percent of cells bound (mean +/- SEM, n=3). The protocol:
(§1) Cells were incubated with 10-12 point, 3-fold serial dilutions of the respective labeled antibody (Invitrogen #S20026, Invitrogen #C20029), starting at 30 ug/mL, in PBS+2% FCS for 30 minutes at 4° C. and containing the following: CD4 eBioscience #12-0047-42 or Biolegend #344634; CD8 eBioscience #25-0088-42; CD3 eBioscience 56-0038-82 for human cells and BD #557917 for cyno cells; CD33 eBioscience 45-0338-42 for human cells; Live/Dead eBioscience #65-0865-18. After washing thoroughly, cells were processed on a BD Fortessa or Fortessa X20 cytometer, and data were analyzed with Flowjo software (BD Biosciences). Percent of cells bound by the respective antibody is quantified and graphed with Prism (Graphpad, San Diego, CA).

Assay [2] deals with T2, cell surface cynomolgus monkey LAG-3 (cynomolgus).
T2 construct: whole, on cells
As to the kind of experiment: flow cytometry, labeled antibody on anti-CD3 activated cynomolgus PBMC, CD4 T cells, percent of cells bound (mean +/- SEM, n=3). The method, then: as §1
On the technique in general: In flow cytometry, cells or beads pass a laser one at a time.

The target in assay [3] is T1, cell membrane-expressed human LAG-3. The experiment in a line: flow cytometry, labeled antibody on anti-CD3 activated human PBMC, CD8 T cells, percent of cells bound (mean +/- SEM, n=3). The protocol: as §1
Assay [4] addresses T2, cell surface cynomolgus monkey LAG-3. As to the kind of experiment: flow cytometry, labeled antibody on anti-CD3 activated cynomolgus PBMC, CD8 T cells, percent of cells bound (mean +/- SEM, n=3). The method, then: as §1
The target in a further assay is T3, Cynomolgus LAG-3-ECD (cynomolgus).
T3 construct: as printed it starts with the N-terminal leader (MWEAQ...) and ends with a His tag; also called Cynomolgus LAG-3 ECD-His
T3 chain: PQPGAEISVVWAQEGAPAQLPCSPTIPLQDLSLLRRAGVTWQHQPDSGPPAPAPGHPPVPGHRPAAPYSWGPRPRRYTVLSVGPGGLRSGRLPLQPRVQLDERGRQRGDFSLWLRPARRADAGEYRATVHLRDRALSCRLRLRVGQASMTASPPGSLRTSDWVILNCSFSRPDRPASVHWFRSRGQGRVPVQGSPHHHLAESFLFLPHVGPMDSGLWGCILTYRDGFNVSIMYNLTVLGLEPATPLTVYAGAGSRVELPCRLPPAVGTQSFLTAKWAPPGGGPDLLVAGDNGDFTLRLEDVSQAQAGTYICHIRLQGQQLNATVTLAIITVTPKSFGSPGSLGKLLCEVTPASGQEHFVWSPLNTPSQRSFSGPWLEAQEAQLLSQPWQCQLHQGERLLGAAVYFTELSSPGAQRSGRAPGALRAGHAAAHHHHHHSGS
The experiment in a line: SPR (Biacore T200), antibody captured on PrismA chip, ECD as analyte, 37° C. The protocol:
(§2) A Biacore® T200 (Cytiva, Marlborough, MA) was used to measure the binding kinetics and affinities of the LAG-3 antibody to the LAG-3 soluble extracellular domain (ECD) and the bispecific antibody to soluble LAG-3-ECD and PD-1-ECD (human: Sino Biologicals, Cat #10377-H08H; cynomolgus: Sino Biologicals, Cat #90311-C08H) by surface plasmon resonance. Samples were diluted in HBS-EP+ (10 mM Hepes, 150 mM NaCl, 3 mM EDTA, 0.05% Tween-20, pH 7.6) (Teknova Cat #H8022) with 5 g/L of BSA (Jackson ImmunoResearch Cat #001-000-161) running buffer. PrismA Series S Sensor chip (Cat #29650263) is purchased from Cytiva.
(§3) Binding was evaluated using multi-cycle kinetics by an antibody capture method. Each cycle was performed at either 37° C. or 25° C. at a flow rate of 10 μL/min for antibody capture to the PrismA chip and 100 μL/min for analyte association (with 120 sec contact time) and dissociation (900 sec). Each cycle consisted of the following steps: injection of bispecific antibody at 1 μg/mL in HBS-EP+ targeting Rmax values of 125 RU (LAG-3 arm), 294 RU (PD-1 arm) and 63 RU (LAG-3 antibody) on flow cell, injection of analyte in HBS-EP+(concentration range of 62.5 nM to 0.25 nM by two-fold serial dilution for both human PD-1-ECD-His (SEQ ID NO: 40) and human LAG-3-His (SEQ ID NO: 42) followed by 900-second dissociation phase, and regeneration using 10 μL of 10 mM glycine hydrochloride, pH 1.5 over a 60-second contact time utilizing a 10 μL/min flow rate. All analyte concentrations were determined utilizing monomeric molecular weight (MW) values. Association rates (kₒₙ) and dissociation rates (koff) for LAG-3-ECD and PD-1-ECD were evaluated using double referencing by flow-cell one reference subtraction in addition to 0 nM blank subtraction and fit to “1:1 (Langmuir) binding” model in the BIAevaluation software version 4.1. The dissociation constant (KD) was calculated from the binding kinetics according to the relationship KD=Koff/Kₒₙ. Stoichiometry=[RUₘₐₓ/RUcaptured]/[MWanalyte/MWantibody] where MWAntibodyA is 150 kDa. Values are reported as mean±standard deviation.

The target of another assay is T4, Human LAG-3 ECD-His (human, UniProt P18627 23-449).
T4 construct: Soluble analyte in SPR; the entry includes linker and His tag; also called human LAG-3-His
T4 sequence: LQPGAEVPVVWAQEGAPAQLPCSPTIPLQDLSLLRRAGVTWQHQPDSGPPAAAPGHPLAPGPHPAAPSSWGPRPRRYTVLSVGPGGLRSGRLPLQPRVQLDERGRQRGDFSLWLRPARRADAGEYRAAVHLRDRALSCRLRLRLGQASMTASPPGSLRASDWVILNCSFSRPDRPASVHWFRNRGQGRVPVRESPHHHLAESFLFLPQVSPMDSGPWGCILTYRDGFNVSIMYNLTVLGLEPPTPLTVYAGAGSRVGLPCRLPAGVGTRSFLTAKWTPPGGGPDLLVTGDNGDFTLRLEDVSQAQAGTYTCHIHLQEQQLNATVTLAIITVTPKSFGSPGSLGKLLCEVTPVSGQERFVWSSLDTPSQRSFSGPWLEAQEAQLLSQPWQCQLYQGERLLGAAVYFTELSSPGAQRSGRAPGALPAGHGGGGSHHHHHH
Described as above. The method, then: as §2, §3

B1: Antibody E (antibody, V domains shown)
VH: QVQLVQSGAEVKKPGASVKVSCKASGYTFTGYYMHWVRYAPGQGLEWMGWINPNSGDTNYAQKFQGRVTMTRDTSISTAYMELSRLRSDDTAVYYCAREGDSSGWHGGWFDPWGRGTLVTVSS
VL: DIVMTQTPLSLPVTPGEPASISCRSSQSLLDSAEGSTYLDWFLRKPGDSPQLLIYTLSYRASGVPDRFSGSGSGTDFTLKISRVEAEDVGVYYCMQRVEFPYTFGQGTKVEIKR
notes: Monospecific LAG-3 antibody; also called human LAG-3 Antibody E
Turning to B1, the EC50 amounted to 8.7 ng/mL in assay [1], 10.5 ng/mL in assay [2], 3.4 ng/mL in assay [3] and 6.5 ng/mL in assay [4]. The dissociation constant (Kd) with Cynomolgus LAG-3-ECD was 0.038 nM; with Human LAG-3 ECD-His, 1 nM. Also, the figures for the koff in the assay with Cynomolgus LAG-3-ECD and with Human LAG-3 ECD-His were 0.0042 s⁻¹ and 0.16 s⁻¹, respectively. The kon in the assay with Cynomolgus LAG-3-ECD was found to be 1.1e+08 M⁻¹ s⁻¹; with Human LAG-3 ECD-His, 1.5e+08 M⁻¹ s⁻¹.

The term EC50 denotes the concentration that produces a half-maximal response. By Kd is commonly meant the concentration at which binding is half-saturated. Usually koff stands for the rate constant with which the complex falls apart. For orientation: kon means a measure of how fast the partners come together.
